Results reported in patent US20050048070A1 (published 2005).

Tests used:
[1] = target: T1, K8(1-233)/K18(1-72) heterotypic complex (human, UniProt P05787 2-234; P05783 2-73); assay: heterotypic association assay: blotted K18 proteins incubated with purified K8(1-233), then stained with COU-1
T1 construct: Heterotypic complex of two GST fusion proteins; not shown: glutathione S-transferase (GST) fusion partner, modified pGEX-2T vector
T1 sequence 1: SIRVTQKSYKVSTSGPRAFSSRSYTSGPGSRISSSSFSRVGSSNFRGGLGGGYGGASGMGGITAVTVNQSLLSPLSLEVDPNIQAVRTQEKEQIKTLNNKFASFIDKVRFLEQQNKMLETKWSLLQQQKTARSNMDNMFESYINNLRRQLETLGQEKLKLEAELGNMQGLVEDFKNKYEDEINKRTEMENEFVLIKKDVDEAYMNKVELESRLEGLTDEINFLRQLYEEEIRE
T1 sequence 2: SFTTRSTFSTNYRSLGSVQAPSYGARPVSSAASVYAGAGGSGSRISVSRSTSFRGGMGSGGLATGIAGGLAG

[2] = target: T2, K8(1-129)/intact K18 heterotypic complex (human, UniProt P05787 2-130; P05783 2-430); assay: ELISA: complex coated at 5 µg/ml, COU-1 in serial dilutions, AP-labeled anti-human kappa antibody
T2 construct: Heterotypic complex of two GST fusion proteins; not shown: glutathione S-transferase (GST) fusion partner, modified pGEX-2T vector
T2 chain 1: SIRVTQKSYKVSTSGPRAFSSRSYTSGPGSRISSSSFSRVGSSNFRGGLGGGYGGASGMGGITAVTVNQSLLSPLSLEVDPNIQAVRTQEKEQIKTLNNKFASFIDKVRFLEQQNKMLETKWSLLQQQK
T2 chain 2: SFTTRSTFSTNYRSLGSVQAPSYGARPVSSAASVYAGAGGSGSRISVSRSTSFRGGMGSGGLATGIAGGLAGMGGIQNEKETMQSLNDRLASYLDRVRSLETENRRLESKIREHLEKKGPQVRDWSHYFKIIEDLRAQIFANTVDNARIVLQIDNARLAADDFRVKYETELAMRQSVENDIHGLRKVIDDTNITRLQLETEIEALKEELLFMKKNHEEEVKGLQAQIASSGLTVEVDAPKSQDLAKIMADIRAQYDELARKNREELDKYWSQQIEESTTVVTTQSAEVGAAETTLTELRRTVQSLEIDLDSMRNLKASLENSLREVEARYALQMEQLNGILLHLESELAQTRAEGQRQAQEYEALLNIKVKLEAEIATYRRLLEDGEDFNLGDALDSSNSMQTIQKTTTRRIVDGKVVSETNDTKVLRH

[3] = target: T3, intact K8/K18(1-65) heterotypic complex (human, UniProt P05787 2-483; P05783 2-66); assay: heterotypic association Western blot (K18 fragments on the membrane, incubated with purified intact K8)
T3 construct: Heterotypic complex of two GST fusion proteins; not shown: glutathione S-transferase (GST) fusion partner, modified pGEX-2T vector
T3 chain 1: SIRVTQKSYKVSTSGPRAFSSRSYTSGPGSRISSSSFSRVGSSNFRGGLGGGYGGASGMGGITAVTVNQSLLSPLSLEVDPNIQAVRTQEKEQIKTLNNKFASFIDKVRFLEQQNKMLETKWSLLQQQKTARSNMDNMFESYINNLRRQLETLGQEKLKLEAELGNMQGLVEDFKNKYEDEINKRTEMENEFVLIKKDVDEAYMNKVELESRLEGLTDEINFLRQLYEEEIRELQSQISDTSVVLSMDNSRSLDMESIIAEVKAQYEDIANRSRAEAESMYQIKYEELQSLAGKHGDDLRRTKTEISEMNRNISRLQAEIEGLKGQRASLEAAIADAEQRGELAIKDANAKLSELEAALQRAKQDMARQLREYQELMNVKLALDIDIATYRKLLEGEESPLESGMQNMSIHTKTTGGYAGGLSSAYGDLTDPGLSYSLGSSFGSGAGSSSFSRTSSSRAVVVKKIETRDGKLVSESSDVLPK
T3 chain 2: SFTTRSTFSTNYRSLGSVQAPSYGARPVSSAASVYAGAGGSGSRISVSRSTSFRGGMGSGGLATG

[4] = target: T4, cleaved K8/K18 heterotypic complexes from adenovirus-infected HeLa cells (human, UniProt P05787 2-483; P05783 75-430, limits assumed); assay: Western blot of cytokeratin purified from adenovirus-infected HeLa cells (data not shown)
T4 construct: also called cytokeratin from HeLa cells infected with adenovirus
T4 chain 1: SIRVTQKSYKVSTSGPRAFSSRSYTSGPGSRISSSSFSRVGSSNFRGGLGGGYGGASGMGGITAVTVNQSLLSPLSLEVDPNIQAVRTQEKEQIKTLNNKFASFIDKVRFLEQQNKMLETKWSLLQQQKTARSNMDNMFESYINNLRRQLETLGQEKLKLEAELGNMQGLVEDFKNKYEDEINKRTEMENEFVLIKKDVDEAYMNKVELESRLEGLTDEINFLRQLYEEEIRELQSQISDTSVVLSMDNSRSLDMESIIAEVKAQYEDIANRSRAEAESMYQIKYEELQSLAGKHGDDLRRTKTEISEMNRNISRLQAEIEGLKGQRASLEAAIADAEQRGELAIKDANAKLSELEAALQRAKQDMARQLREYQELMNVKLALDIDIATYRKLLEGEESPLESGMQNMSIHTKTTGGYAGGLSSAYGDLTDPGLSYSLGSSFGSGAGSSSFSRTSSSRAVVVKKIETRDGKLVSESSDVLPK
T4 chain 2: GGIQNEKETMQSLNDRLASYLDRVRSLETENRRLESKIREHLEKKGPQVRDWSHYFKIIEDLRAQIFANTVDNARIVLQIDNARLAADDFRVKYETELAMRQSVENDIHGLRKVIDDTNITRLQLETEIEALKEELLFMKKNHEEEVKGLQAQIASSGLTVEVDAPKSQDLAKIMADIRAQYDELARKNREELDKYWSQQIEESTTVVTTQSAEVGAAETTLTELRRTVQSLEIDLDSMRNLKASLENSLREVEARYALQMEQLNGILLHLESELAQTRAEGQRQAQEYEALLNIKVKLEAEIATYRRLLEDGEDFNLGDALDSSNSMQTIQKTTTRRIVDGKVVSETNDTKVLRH

[5] = target: T5, intact K8/intact K18 heterotypic complex (recombinant GST fusion proteins) (human, UniProt P05787 2-483; P05783 2-430); assay: SPR (BIAcore), complex immobilized, COU-1 injected
T5 construct: Heterotypic complex of two GST fusion proteins; also called intact K8/K18 complex; not shown: glutathione S-transferase (GST) fusion partner, modified pGEX-2T vector
T5 chain 1: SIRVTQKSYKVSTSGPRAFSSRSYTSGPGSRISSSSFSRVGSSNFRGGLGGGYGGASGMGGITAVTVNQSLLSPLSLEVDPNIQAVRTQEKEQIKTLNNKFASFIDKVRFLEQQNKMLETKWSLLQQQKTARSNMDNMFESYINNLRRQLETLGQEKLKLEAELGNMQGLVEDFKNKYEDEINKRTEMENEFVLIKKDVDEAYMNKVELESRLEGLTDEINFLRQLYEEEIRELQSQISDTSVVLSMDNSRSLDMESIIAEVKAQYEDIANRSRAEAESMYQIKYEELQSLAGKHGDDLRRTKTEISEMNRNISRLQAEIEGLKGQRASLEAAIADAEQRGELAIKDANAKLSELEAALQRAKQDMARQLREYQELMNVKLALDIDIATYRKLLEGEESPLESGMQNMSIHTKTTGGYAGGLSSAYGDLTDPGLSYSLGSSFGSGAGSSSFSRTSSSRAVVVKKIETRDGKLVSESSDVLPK
T5 chain 2: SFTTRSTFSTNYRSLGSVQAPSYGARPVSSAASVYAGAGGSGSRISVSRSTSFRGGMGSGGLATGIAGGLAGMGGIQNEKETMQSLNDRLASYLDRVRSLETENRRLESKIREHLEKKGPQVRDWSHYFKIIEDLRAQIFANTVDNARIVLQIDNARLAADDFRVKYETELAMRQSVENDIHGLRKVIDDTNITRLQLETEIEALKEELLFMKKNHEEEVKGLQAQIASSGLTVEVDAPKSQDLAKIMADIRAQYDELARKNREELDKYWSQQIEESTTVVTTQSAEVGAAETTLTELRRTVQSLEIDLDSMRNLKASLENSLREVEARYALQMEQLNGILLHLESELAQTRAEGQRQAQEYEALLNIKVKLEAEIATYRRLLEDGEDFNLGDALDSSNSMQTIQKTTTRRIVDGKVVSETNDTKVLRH

[6] = target: T6, N-terminally truncated K8 protein where the first 22 amino acids were missing (from colon cancer tissue) (human, UniProt P05787 24-483); assay: Western blot of cytokeratin bands from colon cancer tissue, bands identified by N-terminal sequencing (drawn table)
T6 construct: also called K8 starting at residue 23
T6 chain: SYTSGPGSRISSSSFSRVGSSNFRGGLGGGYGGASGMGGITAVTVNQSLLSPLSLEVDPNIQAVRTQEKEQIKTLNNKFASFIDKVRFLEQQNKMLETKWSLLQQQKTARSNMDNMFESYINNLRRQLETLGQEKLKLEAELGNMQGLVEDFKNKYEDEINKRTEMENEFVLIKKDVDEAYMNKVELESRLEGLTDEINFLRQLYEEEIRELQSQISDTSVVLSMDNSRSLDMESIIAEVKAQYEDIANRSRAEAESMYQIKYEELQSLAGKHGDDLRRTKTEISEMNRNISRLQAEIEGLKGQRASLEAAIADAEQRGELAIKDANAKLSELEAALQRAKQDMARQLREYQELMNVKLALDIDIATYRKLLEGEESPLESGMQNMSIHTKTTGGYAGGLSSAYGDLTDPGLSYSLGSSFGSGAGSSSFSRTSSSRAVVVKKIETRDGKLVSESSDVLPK
Protocol: Protein bands were visualized with Coomassie Brilliant Blue. Separated proteins were also electroblotted onto polyvinylidene difluoride membranes (PVDF, Immobilon P, Millipore, Bedford, Mass.), at 100 Volts for 1 h in ice, using transfer buffer (10% (v/v) ethanol, 25 mM Tris, 200 mM glycine). Prior to transfer, the membrane was pre-soaked in ethanol for 2 min and the membranes and the gel were incubated in transfer buffer for 10 min. […] The membrane was washed in Western blot buffer and incubated with AP-conjugated rabbit-anti-goat IgG antibody (diluted 1/1000, Sigma), or AP-conjugated rabbit-anti-human IgM antibody (diluted 1/500, DAKO, Glostrup, Denmark) for 2 h at room temperature. Following 3 washes in PBS, the membrane was fixed with 0.2% glutaraldehyde in PBS for 15 min at room temperature and finally washed in PBS. Bound AP conjugate was visualized by NBT/BCIP (Bio-Rad, Hercules, Calif.). MCF7 or Colon 137 cells, resuspended in SDS sample buffer and sonicated, were used as antigen control. A low range protein marker (Bio-Rad) was used to indicate the molecular weight of the fragments.

B1: human monoclonal IgM antibody COU-1 (antibody, V domains shown)
VH: GAEVKKPGASVKVSCKASDYTFSSYYMHWVRQAPGQGLEWMGIINPSGGSTSYAQKFQGRVTMTRDTSTNTVYMELSSLRSEDTAVYYCARDQVVVAATLSNYGMDVWGQGTTVTVSS
VL: ELTQSPGTLSLSPGERATLSCRASQSVSSSYLAWYQQKPGQAPRLLIYDASNRATGIPARFSGSGSGTDFTLTISSLEPEDFAVYYCQQGTNWGIAFGQGTRLDIKR
notes: Human IgM with kappa light chain, secreted by hybridoma B9165 (ECACC 87040201), purified from culture supernatant; also called HMab COU-1; HuMab COU-1
binding result [1]: no binding (tested: 5 µg/ml COU-1 (P-0285)) | EC50 (read off the curve) [2]: ~0.6 µg/mL | binding result [3]: no binding (tested: COU-1 5 µg/ml) | binding result [4]: no binding | Ka [5]: 1.8e+07 M⁻¹ | Kd [5]: 55 nM | fold lower binding than to the truncated complexes [5]: ~100 fold | koff [5]: 0.0005 s⁻¹ | kon [5]: 9100 M⁻¹ s⁻¹ | binding result [6]: no binding (tested: 5 µg/ml COU-1 (P-0279))
